Biological target: T1, HLA-A*02:01 (human)
T1 construct: also called HLA-A2; A2
Assay: peptide loaded on Flex-T HLA-A*02:01 monomer by UV exchange; the resulting tetramer stained TCR-transduced T cells
Text: HLA-A2-binding epitope of CLDN6 between CLDN6₁₃₁₋₁₄₀ was predicted using […] database. […] (CLDN6₁₃₂₋₁₄₀) (SEQ ID NO:18) peptide was synthesized by EZBiolab with 82% purity. HLA-A2/peptide monomer was generated with Flex-T HLA-A*02:01 monomer UVX followed by tetramerization using PE-streptavidin according to the manufacturer's instruction (BioLegend). CD8-TCR-or mock-transduced cells were stained with the tetramer followed by anti-CD8 antibody.

binding result: binds
Binder: TLIPVCWTA (Synthetic peptide, 82% purity) [CLDN6132-140 peptide]
